Measurements from patent publication US20120244226A1, “TREATMENT COMPOSITION AND METHOD” (DEC INTERNATIONAL NZ LIMITED, priority 2009, published 2012).

B1: pure lactoferrin (90%): composition 1 of WO 2008/009798: pure lactoferrin (90%) (protein, UniProt P24627 20-708, looked up)
Lactotransferrin: APRKNVRWCTISQPEWFKCRRWQWRMKKLGAPSITCVRRAFALECIRAIAEKKADAVTLDGGMVFEAGRDPYKLRPVAAEIYGTKESPQTHYYAVAVVKKGSNFQLDQLQGRKSCHTGLGRSAGWIIPMGILRPYLSWTESLEPLQGAVAKFFSASCVPCIDRQAYPNLCQLCKGEGENQCACSSREPYFGYSGAFKCLQDGAGDVAFVKETTVFENLPEKADRDQYELLCLNNSRAPVDAFKECHLAQVPSHAVVARSVDGKEDLIWKLLSKAQEKFGKNKSRSFQLFGSPPGQRDLLFKDSALGFLRIPSKVDSALYLGSRYLTTLKNLRETAEEVKARYTRVVWCAVGPEEQKKCQQWSQQSGQNVTCATASTTDDCIVLVLKGEADALNLDGGYIYTAGKCGLVPVLAENRKSSKHSSLDCVLRPTEGYLAVAVVKKANEGLTWNSLKDKKSCHTAVDRTAGWNIPMGLIVNQTGSCAFDEFFSQSCAPGADPKSRLCALCAGDDQGLDKCVPNSKEKYYGYTGAFRCLAEDVGDVAFVKNDTVWENTNGESTADWAKNLNREDFRLLCLDGTRKPVTEAQSCHLAVAPNHAVVSRSDRAAHVKQVLLHQQALFGKNGKNCPDKFCLFKSETKNLLFNDNTECLAKLGGRPTYEEYLGTEYVTAIANLKKCSTSPLLEACAFLTR
modifications: 90% pure preparation
B2: Lactoferrin: milk immune defence protein (P24627), tested on its own (protein, UniProt P24627 20-708, looked up)
Lactotransferrin: B1 Lactotransferrin

Legend:
[1] = WO 2008/009798, cited from earlier work
[2] = tested on: tumor necrosis factor-α (TNF-α) produced by LPS activated neutrophils; assay: TNF-α production by LPS activated neutrophils (ELISA); type: cell-based, rat; conditions: for TNF-α % Inhibition: relative to LPS only control
Procedure: (§1) The anti-inflammatory properties of the cationic fraction, IDP, and the combination of IDP with chondroitin and glucosamine were determined by measuring their ability to inhibit the production of the inflammatory compounds, tumor necrosis factor-α (TNF-α) and interleukin-6 (IL-6) produced by LPS activated neutrophils. […] Neutrophils were isolated from rat blood and incubated in the presence of LPS. LPS is derived from bacterial cell walls and is used to mimic a 'bacterial infection'. […] Two of these cytokine are TNF-α and IL-6. The concentrations of both cytokines produced by neutrophils exposed to LPS and the various test substances are summarised graphically in FIGS. 1 and 2 respectively. […] Aliquots from each set of triplicates were combined, and duplicates assayed for cytokine concentrations. The plate blank was subtracted from each individual data point. A VersaMax 96-well plate reader was used to colorimetrically assess the production of TNF-α and IL-6 as determined by the ELISA, using Rat TNF-α ELISA kit, R&D Systems, Cat # RTA00, and Rat IL-6 ELISA kit, R&D Systems, Cat # […]. The average cytokine concentration, standard deviation and standard error were calculated for each data set (sample and concentration). Preliminary statistical significance was assessed using independent Student t-tests at α≦0.05.

[3] = tested on: interleukin-6 (IL-6) produced by LPS activated neutrophils; assay: IL-6 production by LPS activated neutrophils (ELISA); type: cell-based, rat; conditions: for IL-6 % Inhibition: relative to LPS only control
Procedure: as §1

Row | Molecule | anti-inflammatory activity of the composition on its own [1] | anti-inflammatory activity compared with glucosamine and chondroitin sulphate alone ([1]; combined with glucosamine and chondroitin sulphate) | TNF-α ([2]; 1 μg/ml) | TNF-α % Inhibition ([2]; 1 μg/ml) | TNF-α ([2]; 10 μg/ml) | TNF-α % Inhibition ([2]; 10 μg/ml) | TNF-α ([2]; 100 μg/ml) | TNF-α % Inhibition ([2]; 100 μg/ml) | stimulation of TNF-α levels ([2]; highest concentration tested) | effect on TNF-α, in words ([2]; lowest concentrations tested) | effect on TNF-α, in words ([2]; over the concentrations tested) | IL-6 ([3]; 1 μg/ml) | IL-6 % Inhibition ([3]; 1 μg/ml) | IL-6 ([3]; 10 μg/ml) | IL-6 % Inhibition ([3]; 10 μg/ml) | IL-6 ([3]; 100 μg/ml) | IL-6 % Inhibition ([3]; 100 μg/ml) | stimulation of IL-6 levels ([3]; highest concentration tested) | effect on IL-6, in words ([3]; lowest concentrations tested) | effect on IL-6, in words ([3]; over the concentrations tested)
1 | B1 | Neither of these compositions showed significant anti-inflammatory activity | significantly better | – | – | – | – | – | – | – | – | – | – | – | – | – | – | – | – | – | –
2 | B2 | – | – | 226.19 pg/mL | 17.9% | 242.58 pg/mL | 11.9% | 325.95 pg/mL | −18.4% | 18% | no statistically significant effect | appeared not to act as anti-inflammatory | 197.88 pg/mL | 33.3% | 269.86 pg/mL | 9.1% | 441.09 pg/mL | −48.6% | 48% | no statistically significant effect | appeared not to act as anti-inflammatory
